Experiments:
[1] = biological target: T1, MAGE-A3 peptide on HLA-A*02:01 (human); test: as above, co-transfected with inhibitor construct C2107, 5 uM NY-ESO-1 peptide; full-length, on cells
T1 peptide: FLWGPRALV

[2] = biological target: T1, MAGE-A3 peptide on HLA-A*02:01; test: as above, co-transfected with the inhibitory CAR C1761 (NY-ESO-1 scFv, LILRB1), 50 uM NY-ESO-1 peptide; reduced against CT139 alone; full-length, on cells
[3] = biological target: T1, MAGE-A3 peptide on HLA-A*02:01; test: as above, co-transfected with inhibitor construct C2106, 5 uM NY-ESO-1 peptide; full-length, on cells
[4] = biological target: T1, MAGE-A3 peptide on HLA-A*02:01; test: NFAT-luciferase Jurkat cells, CT139 alone; T2 cells with titrated MAGE-A3 peptide and 50 uM NY-ESO-1 peptide; full-length, on cells

B1: CT139, MAGE-A3 pep1 TCR (both alpha and beta chains) (TCR, V domains shown)
Valpha: AQSVDQPDAHVTLSEGASLELRCSYSYSAAPYLFWYVQYPGQSLQFLLKYITGDTVVKGTKGFEAEFRKSNSSFNLKKSPAHWSDSAKYFCALEGPDTGNYKYVFGAGTRLKVIA
Vbeta: DAGVTQTPRHEVAEKGQTIILKCEPVSGHNDLFWYRQTKIQGLELLSYFRSKSLMEDGGAFKDRFKAEMLNSSFSTLKIQPTEPRDSAVYLCASSFGTASAETLYFGSGTRLTVL
EC50 of peptide [1]: 100 nM
EC50 of peptide [2]: > 1000 nM
EC50 of peptide [3]: 40 nM
EC50 of peptide [4]: 20 nM

From patent US20220153807A1 (published 2022)
